Measured values as given in patent publication US20110207628A1.

Legend:
[1] = target: tubby-N (N-terminus of mouse tubby, 1M-242P), GST-free (mouse) (UniProt P50586); experiment: clonal phage on immobilized tubby-N, plaque assay
[2] = target: FLAG-tubby-F (full-length mouse tubby with N-terminal FLAG tag) (mouse) (UniProt P50586); experiment: clonal phage on immobilized FLAG-tubby-F, plaque assay
Chain of FLAG-tubby-F (full-length mouse tubby with N-terminal FLAG tag) (mouse) (P50586 other isoform, or with tags, fused parts or gaps): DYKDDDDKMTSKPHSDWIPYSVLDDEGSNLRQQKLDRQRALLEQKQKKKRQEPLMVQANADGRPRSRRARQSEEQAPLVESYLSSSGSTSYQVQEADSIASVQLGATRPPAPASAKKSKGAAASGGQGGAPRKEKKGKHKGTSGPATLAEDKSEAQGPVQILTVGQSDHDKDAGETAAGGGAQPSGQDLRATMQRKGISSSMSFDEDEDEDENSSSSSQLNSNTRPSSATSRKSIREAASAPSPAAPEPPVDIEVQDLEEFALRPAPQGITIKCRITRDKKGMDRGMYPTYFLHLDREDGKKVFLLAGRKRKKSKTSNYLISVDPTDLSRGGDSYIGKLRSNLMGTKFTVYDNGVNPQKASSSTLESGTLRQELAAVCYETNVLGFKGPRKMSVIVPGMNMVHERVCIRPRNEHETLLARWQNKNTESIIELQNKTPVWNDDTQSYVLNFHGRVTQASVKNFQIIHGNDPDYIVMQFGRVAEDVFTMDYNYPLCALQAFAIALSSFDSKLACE

Chain of tubby-N (N-terminus of mouse tubby, 1M-242P), GST-free (mouse) (P50586 1-242): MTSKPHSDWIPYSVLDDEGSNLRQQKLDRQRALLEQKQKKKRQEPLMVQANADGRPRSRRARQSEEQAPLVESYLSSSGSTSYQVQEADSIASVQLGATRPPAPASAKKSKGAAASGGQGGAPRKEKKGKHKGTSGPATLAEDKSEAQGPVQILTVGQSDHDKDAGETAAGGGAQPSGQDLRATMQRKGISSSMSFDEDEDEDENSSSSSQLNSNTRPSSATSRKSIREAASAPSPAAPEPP

B1: Regulated endocrine-specific protein 18 (Resp18) 68V-134K, phage clone (protein, mouse, UniProt P47939 68-134, looked up)
chain: VPEGMFWADDIAYELMTKKVEHLSRLHPQYPCRKDMKAVSPTANAGVRSKQEEKLQLLSPQKSPTVK
Question: For B1, which Binding to tubby-N (binding specificity of clonal phage vs. control phage) [1] is on record?
Answer: 10.3 X (fold)

Question: And the Binding to tubby-F (binding specificity to FLAG-tubby-F vs. to GFP-FLAG) [2]?
Answer: 4.8 X (fold)
